From EP1922329B1

Target: human rhinovirus serotype HRV-39
Test: cell-based or functional assay

| Substance | IC50, CPE assay [µg/mL] | fold lower IC50 than soluble ICAM-1, CPE assay [fold] |
| --- | --- | --- |
| soluble ICAM-1 (from UniProt P05362 28-480) (receptor) | 1.35 |  |
| IC1-5D/IgA (ICAM/IgA fusion, gift of Dr. Tim Springer; Martin, et al., 1993) (Fc fusion) | 0.12 | 11.3 |
